For series [1], the target named is T1, dtSARM1, the truncated form of SARM1 without the N-terminal mitochondrial signal, fused with a twin-Strep-tag … (human, UniProt Q6SZW1).
T1 construct: also called recombinant SARM1; SARM1^NMN (loaded with NMN); source: Expi293F stably expressing dtSARM1 (lentiviral); in lysate, or purified (StrepTactin resin, Superdex 200 gel filtration); not shown: twin-Strep, N-terminal, kept; Flag, N-terminal, kept
In words: cryo-EM structure; 3 mg/mL dtSARM1 with 100 uM NMN in 100 mM Tris pH 8.0, 150 mM NaCl, 1 mM EDTA on ice for 10 min, then Nb-C6 at 1:1 molar ratio, 30 min on ice. The settings on record: both partners purified.

In series [2] the target is T1, dtSARM1, the truncated form of SARM1 …. In words: SPR; BIAcore 8K; dtSARM1 captured (about 500 RU) on a CM5 chip coated with Strep-Tactin XT; Nb-C6 1.56-400 nM in NMN/HBS-EP (100 uM NMN, 10 mM HEPES, 150 mM NaCl, 1 mg/mL BSA, 3 mM EDTA, 0.05% P20); 360 s association, 540 s dissociation; two-state kinetics model. As to conditions: both partners purified. (SPR reads the build-up and loss of mass on a sensor chip optically.)

The next series has as its target Nanobody C6 (alpaca). In words: cryo-EM structure; 3 mg/mL dtSARM1 with 100 uM NMN in 100 mM Tris pH 8.0, 150 mM NaCl, 1 mM EDTA on ice for 10 min, then Nb-C6 at 1:1 molar ratio, 30 min on ice.
The target in series [3] is T2, dtSARM1, the truncated form of SARM1 without the N-terminal mitochondrial signal, fused with a twin-Strep-tag … (human, UniProt Q6SZW1 28-724).
T2 chain: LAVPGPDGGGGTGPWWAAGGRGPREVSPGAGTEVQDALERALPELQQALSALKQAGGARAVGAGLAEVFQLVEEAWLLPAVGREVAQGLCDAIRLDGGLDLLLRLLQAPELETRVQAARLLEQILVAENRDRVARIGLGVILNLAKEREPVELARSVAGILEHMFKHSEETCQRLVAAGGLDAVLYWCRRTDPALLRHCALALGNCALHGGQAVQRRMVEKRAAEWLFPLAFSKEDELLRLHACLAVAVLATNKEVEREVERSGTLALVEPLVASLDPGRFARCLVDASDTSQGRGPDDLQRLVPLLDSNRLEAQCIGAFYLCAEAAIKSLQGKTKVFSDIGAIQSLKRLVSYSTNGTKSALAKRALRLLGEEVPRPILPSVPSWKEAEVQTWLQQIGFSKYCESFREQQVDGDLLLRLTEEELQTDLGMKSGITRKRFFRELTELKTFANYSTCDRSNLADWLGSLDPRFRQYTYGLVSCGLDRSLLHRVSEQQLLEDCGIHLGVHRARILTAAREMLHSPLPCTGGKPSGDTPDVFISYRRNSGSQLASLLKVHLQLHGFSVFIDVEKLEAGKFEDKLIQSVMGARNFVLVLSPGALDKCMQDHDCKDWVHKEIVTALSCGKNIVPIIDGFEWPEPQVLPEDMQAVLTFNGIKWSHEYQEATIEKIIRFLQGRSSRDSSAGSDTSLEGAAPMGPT
Briefly: SPR; 100 uM NMN, two-state fit kd1.

The target in series [4] is T2, dtSARM1, the truncated form of SARM1 …. Briefly: SPR; 100 uM NMN, two-state fit kd2.
Series [5] concerns the molecule itself. Briefly: cryo-EM structure; 3 mg/mL dtSARM1 with 100 uM NMN in 100 mM Tris pH 8.0, 150 mM NaCl, 1 mM EDTA on ice for 10 min, then Nb-C6 at 1:1 molar ratio, 30 min on ice.

One may read the stoichiometry N as a count of units in the complex or per binding partner. What is called Kd is the concentration at which binding is half-saturated. Higher therefore signals weaker binding. Broadly, the koff is the first-order rate constant of dissociation. The low end stands for slow dissociation, the high end for fast dissociation.

B1: Nanobody C6 (VHH)
VHH: AVQLVESGGGLVQPGGSLRLSCAASVSISRIYVMAWYRQAPGKQREVVAVIRYDGTTNYPDSVKGRFTISRDNAKNTVYLQMNSLKPEDTAVYYCNANVETWGQGTQVTVSS
notes: Subcloned into pET22b; alpaca nanobody from an immune phage display library; also called Nb-C6; source: E. coli C43(DE3), purified (Ni-Excel resin, HiTrap Q)
Turning to B1, the “stoichiometry N” value was found to be 1 in series [1] and 2 in the series with Nanobody C6 (alpaca). The Kd in series [2] is approximately 25 nM. Moreover, the koff in series [3] was 0.0209 s⁻¹; in series [4], 0.000601 s⁻¹.

B2: dtSARM1, the truncated form of SARM1 without the N-terminal mitochondrial signal, fused with a twin-Strep-tag and a Flag-tag attached to the N-terminus (enzyme, human, UniProt Q6SZW1 28-724, looked up)
chain: T2 chain
notes: also called recombinant SARM1; SARM1^NMN (loaded with NMN); source: Expi293F stably expressing dtSARM1 (lentiviral); in lysate, or purified (StrepTactin resin, Superdex 200 gel filtration); not shown: twin-Strep, N-terminal, kept; Flag, N-terminal, kept
For the molecule B2, in series [5], the “stoichiometry N” value came to 8.

For the origin of these results see publication PMC9780360, “A conformation-specific nanobody targeting the nicotinamide mononucleotide-activated state of SARM1” (Nature Communications, 2022).
